Assay results reported in patent US20240209041A1 (SRI INTERNATIONAL, published 2024).
Primed or numbered codes have the meaning given here. [ ]: non-standard residue; d: D form. PEG11′ = not defined here

Biological target: purified EphA2 (UniProt P29317 25-534, limits assumed)
Test: binding to purified EphA2; method not stated

Sequence of purified EphA2 (P29317 25-534 limits assumed): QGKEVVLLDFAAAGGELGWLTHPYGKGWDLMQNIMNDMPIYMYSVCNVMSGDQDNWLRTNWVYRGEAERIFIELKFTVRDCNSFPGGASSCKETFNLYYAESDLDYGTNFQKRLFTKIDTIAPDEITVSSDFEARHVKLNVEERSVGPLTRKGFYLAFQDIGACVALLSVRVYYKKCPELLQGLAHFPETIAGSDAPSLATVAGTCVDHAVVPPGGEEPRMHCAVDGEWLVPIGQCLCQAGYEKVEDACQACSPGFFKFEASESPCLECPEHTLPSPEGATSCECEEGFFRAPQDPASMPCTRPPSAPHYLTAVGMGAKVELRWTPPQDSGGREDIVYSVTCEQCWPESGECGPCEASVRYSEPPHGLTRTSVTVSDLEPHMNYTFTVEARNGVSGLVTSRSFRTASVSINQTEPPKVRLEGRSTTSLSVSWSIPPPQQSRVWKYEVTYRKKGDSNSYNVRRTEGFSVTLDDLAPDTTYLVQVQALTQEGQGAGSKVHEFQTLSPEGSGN

B1: MGS_H1299.2 V4 (peptide)
peptide: Ac-YAAWPASGAWT[PEG11′]C-NH2
notes: Optimized MGS peptide from phage display (parent H1299.2); also called MGS_1299.2 V4
Binder B1 has a Kd of 3.2 nM.
